In patent EP4574843A1 (Numab Therapeutics AG, dated 2025):

B1: PRO4710 (IgG4 of scFv PRO3744, 68-18-E11-sc07) (antibody, V domains shown)
VH: QQLVESGGGLVQPGGSLRLSCAASGFSFTNNYYMCWVRQAPGKGLEWIACMLVGAWGNTYYASWANGRFTISKDNSKNTVYLQMNSLRAEDTAVYFCARARDYTWTLGGDPETSGFNLWGQGTLVTVSS
VL: DVQMTQSPSSLSASVGDRVTITCQASQSIGSNLAWYQQKPGKPPKLLIYKGGTLESGVPSRFSGSGSGTDFTLTISSLQPEDFATYYCQSTAGSSRSGNYGYVFGQGTKVEIKR
B2: PRO4672 (37-20-B03-based PDL1-BD), anti-CD47 x PDL1 x LILRB2, (scFv)2-Fc-(scFv)2 (trispecific antibody)
chain 1: DVQMTQSPSSLSASVGDRVTITCQASQSISSWVSWYQQKPGKPPKLLIYRGGYLESGVPSRFSASGSGTDFTLTISSLQPEDFATYYCQSTDSSTYGGAFGCGTKVTVLGGGGGSGGGGSGGGGSGGGGSQQVVESGGGLVQPGGSLRLSCAVSGIDLNSYAMTWVRQAPGKCLEWIGYIGSASSTYYASWASGRFTISKDNSKNTVYLQMNSLRAEDSAVYFCARGSTYINIWGQGTLVKVSSEPKSSDKTHTCPPCPAPELLGGPSVFLFPPKPKDTLMISRTPEVTCVVVDVSHEDPEVKFNWYVDGVEVHNAKTKPREEQYNSTYRVVSVLTVLHQDWLNGKEYKCKVSNKALPAPIEKTISKAKGQPREPQVYTLPPCREEMTKNQVSLSCAVKGFYPSDIAVEWESNGQPENNYKTTPPVLDSDGSFFLVSKLTVDKSRWQQGNVFSCSVMHEALHNHYTQKSLSLSPGKGGGGSGGGGSDVQMTQSPSSLSASVGDRVTITCQASQSIGSNLAWYQQKPGKPPKLLIYKGGTLESGVPSRFSGSGSGTDFTLTISSLQPEDFATYYCQSTAGSSRSGNYGYVFGCGTKVTVLGGGGGSGGGGSGGGGSGGGGSQQLVESGGGLVQPGGSLRLSCAASGFSFTNNYYMCWVRQAPGKCLEWIACMLVGAWGNTYYASWANGRFTISKDNSKNTVYLQMNSLRAEDSAVYFCARARDYTWTLGGDPETSGFNLWGQGTLVKVSS
chain 2: not shown
B3: PRO4687 (37-20-B03-based PDL1-BD), anti-CD47 x PDL1 x LILRB2 (trispecific antibody, human IgG1, kappa)
chain: B2 chain 1
heavy: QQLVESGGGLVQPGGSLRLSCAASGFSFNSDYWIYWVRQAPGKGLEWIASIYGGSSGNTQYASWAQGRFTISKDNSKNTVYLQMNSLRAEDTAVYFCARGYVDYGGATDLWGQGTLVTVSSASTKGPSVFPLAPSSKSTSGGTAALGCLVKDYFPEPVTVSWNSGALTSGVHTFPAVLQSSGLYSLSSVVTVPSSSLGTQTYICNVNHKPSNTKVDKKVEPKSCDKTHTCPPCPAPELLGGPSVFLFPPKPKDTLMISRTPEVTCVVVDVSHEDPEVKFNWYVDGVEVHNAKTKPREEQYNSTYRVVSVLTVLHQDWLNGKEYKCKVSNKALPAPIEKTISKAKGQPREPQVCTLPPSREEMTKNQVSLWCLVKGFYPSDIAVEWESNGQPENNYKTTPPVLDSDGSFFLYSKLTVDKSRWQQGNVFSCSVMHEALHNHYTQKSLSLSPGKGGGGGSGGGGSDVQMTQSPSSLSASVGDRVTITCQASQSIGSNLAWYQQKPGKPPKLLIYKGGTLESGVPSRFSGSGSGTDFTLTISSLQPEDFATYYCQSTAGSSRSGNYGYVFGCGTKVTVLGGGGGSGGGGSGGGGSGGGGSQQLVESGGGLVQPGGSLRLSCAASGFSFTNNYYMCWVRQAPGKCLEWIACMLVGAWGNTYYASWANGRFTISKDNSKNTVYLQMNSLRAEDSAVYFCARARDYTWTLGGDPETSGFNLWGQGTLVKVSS
light: DIQMTQSPSSLSASVGDRVTITCQASQSIGTYLAWYQQKPGKPPKLLIYRGGILASGVPSRFSGSGSGTDFTLTISSLQPEDFATYYCQSNFYSDSTTIGPNAFGQGTKVEIKRTVAAPSVFIFPPSDEQLKSGTASVVCLLNNFYPREAKVQWKVDNALQSGNSQESVTEQDSKDSTYSLSSTLTLSKADYEKHKVYACEVTHQGLSSPVTKSFNRGEC
B4: PRO5055 (PRO4687 with 33-03-G02-based PDL1-BD), anti-CD47 x PDL1 x LILRB2 (trispecific antibody, human IgG1, kappa)
chain: B2 chain 1
heavy: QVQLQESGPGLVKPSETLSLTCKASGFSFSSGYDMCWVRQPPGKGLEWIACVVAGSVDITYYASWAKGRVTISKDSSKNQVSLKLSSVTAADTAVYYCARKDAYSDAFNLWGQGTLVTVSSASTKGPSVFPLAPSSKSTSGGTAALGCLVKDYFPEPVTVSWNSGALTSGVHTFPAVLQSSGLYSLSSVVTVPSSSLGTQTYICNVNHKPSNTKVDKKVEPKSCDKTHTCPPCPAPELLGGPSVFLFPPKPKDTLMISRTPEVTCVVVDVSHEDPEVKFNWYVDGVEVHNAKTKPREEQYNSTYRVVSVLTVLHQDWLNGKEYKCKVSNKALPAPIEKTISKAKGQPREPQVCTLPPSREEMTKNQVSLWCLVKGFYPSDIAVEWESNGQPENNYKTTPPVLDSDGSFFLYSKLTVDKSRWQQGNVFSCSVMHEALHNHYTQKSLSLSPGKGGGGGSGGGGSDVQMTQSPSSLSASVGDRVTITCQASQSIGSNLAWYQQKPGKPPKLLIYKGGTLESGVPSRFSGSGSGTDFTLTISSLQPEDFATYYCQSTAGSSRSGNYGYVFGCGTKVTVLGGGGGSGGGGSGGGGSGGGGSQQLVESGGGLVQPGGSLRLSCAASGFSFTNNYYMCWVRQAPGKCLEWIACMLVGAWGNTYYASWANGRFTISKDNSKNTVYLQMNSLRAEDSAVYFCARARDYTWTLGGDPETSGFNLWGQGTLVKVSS
light: DIQMTQSPSSLSASVGDRVTITCQASQSINDYLAWYQQKPGKAPKLLIYKGGTLASGVPSRFSGSGSGTDFTLTISSLQPEDFATYYCQQGYIITDIDNVFGQGTKVEIKRTVAAPSVFIFPPSDEQLKSGTASVVCLLNNFYPREAKVQWKVDNALQSGNSQESVTEQDSKDSTYSLSSTLTLSKADYEKHKVYACEVTHQGLSSPVTKSFNRGEC
B5: PRO5052 (PRO4672 with 33-03-G02-based PDL1-BD), anti-CD47 x PDL1 x LILRB2, (scFv)2-Fc-(scFv)2 (trispecific antibody)
chain 1: B2 chain 1
chain 2: not shown
B6: PRO3696, scFv (VL-linker-VH) 69-01-E02-sc06_(VL_A67G_S68G; VH_T101S_L146K) (scFv)
scFv: DVQMTQSPSSLSASVGDRVTITCQASQSIGLNLAWYQQKPGKPPKLLIYAGGYLASGVSSRFSGSGSGTDFTLTISSLQPEDFATYYCQSTYDGSSFVFAFGTGTKVTVLGGGGGSGGGGSGGGGSGGGGSQEQLVESGGGLVQPGGSLRLSCAASGFSFSSSSYMCWVRQAPGKGLEWIACMVTGSSDDTDYASWAKGRFTISKDNSKNTVYLQMNSLRAEDSAVYFCARAGSAPLWGQGTLVKVSS
B7: PRO3744, scFv (VL-linker-VH) 68-18-E11-sc07_(VL_A67G_S68G_T141C; VH_G51C_T101S_T146K) (scFv)
scFv: DVQMTQSPSSLSASVGDRVTITCQASQSIGSNLAWYQQKPGKPPKLLIYKGGTLESGVPSRFSGSGSGTDFTLTISSLQPEDFATYYCQSTAGSSRSGNYGYVFGCGTKVTVLGGGGGSGGGGSGGGGSGGGGSQQLVESGGGLVQPGGSLRLSCAASGFSFTNNYYMCWVRQAPGKCLEWIACMLVGAWGNTYYASWANGRFTISKDNSKNTVYLQMNSLRAEDSAVYFCARARDYTWTLGGDPETSGFNLWGQGTLVKVSS
B8: PRO3697, scFv (VL-linker-VH) 69-06-G04-sc05_(VL_A67G_S68G; VH_T101S_L146K) (scFv)
scFv: AFQLTQSPSSLSASVGDRVTITCQASQSIGTYLAWYQQKPGKPPKLLIYRGGTLASGVPSRFSGSGSGTDFTLTISSLQPEDFATYYCQSYDSSNTFGTGTKVTVLGGGGGSGGGGSGGGGSGGGGSQEQLVESGGGLVQPGRSLRLSCAASGFDLSADYMCWVRQAPGKGLEWIACIYIDDDNTYYATWAKGRFTISKDNSKNTVYLQMNSLRAEDSAVYFCARGYGVYTGAITYFTLWGQGTLVKVSS

Molecular target: T1, LILRB2 on human monocyte-derived macrophages (HMDM) (human, UniProt Q8N423 22-597)
Assay: cell-based or functional assay

T1 sequence (Q8N423 22-597): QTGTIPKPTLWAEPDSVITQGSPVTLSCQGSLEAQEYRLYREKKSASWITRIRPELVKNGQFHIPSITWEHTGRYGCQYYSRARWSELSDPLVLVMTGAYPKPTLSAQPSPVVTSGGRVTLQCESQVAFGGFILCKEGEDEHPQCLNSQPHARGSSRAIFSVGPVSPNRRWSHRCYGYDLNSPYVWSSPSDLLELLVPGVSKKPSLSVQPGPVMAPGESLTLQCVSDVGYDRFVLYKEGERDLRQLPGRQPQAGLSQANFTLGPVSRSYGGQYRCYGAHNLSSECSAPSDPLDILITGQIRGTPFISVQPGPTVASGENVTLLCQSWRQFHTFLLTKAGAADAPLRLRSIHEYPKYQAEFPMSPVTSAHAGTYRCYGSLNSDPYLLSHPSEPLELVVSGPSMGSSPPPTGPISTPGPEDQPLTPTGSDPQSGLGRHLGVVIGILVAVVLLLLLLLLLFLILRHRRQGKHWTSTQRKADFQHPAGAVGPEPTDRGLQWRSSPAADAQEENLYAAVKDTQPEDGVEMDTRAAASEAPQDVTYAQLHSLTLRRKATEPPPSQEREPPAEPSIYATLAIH

In order of rising “IL-1β EC50 [nM], LPS-driven cytokine secretion by HMDM” value:
1. B4  0.0705 nM
2. B5  0.082 nM
3. B2  0.096 nM
4. B3  0.205 nM
5. B1  0.248 nM

In order of falling “IL-6 EC50 [nM], LPS-driven cytokine secretion by HMDM” value:
1. B1  0.153 nM
2. B3  0.097 nM
3. B2  0.078 nM
4. B5  0.077 nM
5. B4  0.063 nM

In order of rising “TNF-α EC50 [nM], LPS-driven cytokine secretion by HMDM” value:
1. B5  0.117 nM
2. B2  0.123 nM
3. B4  0.141 nM
4. B1  0.169 nM
5. B3  0.175 nM

Molecular target: T1, LILRB2 on human monocyte-derived …
Assay: cell-based or functional assay
Remark: another data set of the same source

In order of falling “CD86 EC50 [nM], re-polarization of M2 macrophages” value:
1. B6  0.243 nM
2. B8  0.214 nM
3. B7  0.117 nM

In order of rising “CD163 EC50 [nM], re-polarization of M2 macrophages” value:
1. B7  0.107 nM
2. B8  0.173 nM
3. B6  0.371 nM

In order of falling “CD206 EC50 [nM], re-polarization of M2 macrophages” value:
1. B6  0.587 nM
2. B8  0.512 nM
3. B7  0.136 nM

In order of rising “IL-1β EC50 [nM], LPS-driven cytokine secretion by HMDM” value:
1. B8  0.279 nM
2. B6  0.446 nM
3. B7  0.779 nM

In order of falling “IL-6 EC50 [nM], LPS-driven cytokine secretion by HMDM” value:
1. B6  0.804 nM
2. B7  0.803 nM
3. B8  0.45 nM

In order of falling “TNF-α EC50 [nM], LPS-driven cytokine secretion by HMDM” value:
1. B8  2.2 nM
2. B7  1.1 nM
3. B6  0.891 nM
